# Patent US20110118131A1 (published 2011)
# Positions count from the first letter of the chain named. Numbers in names are those of the source.
# B1: XPA23 light chain S53E (Fab, V domains shown)
# VH: EVQLLESGGGLVQPGGSLRLSCAASGFTFSKYFMFWVRQAPGKGLEWVSVISPSGGMTRYADSVKGRFTISRDNSKNTLYLQMNSLRAEDTAVYYCARVGYGGNSDYWGQGTLVTVSS
# VL: DIQMTQSPSSVSASVGDRLTIICRASQDINRWLAWYQQTPGNAPKLLIHSATELQSGVPSRFSGSGSGTDFTLTINSLQPEDFATYYCQQADSFPLTFGGGTKVEIK
# B2: XPA23 light chain T52V (Fab, V domains shown)
# VH: B1 VH
# VL: B1 VL with T52V, E53S
# B3: XPA23 light chain W32L (Fab, V domains shown)
# VH: B1 VH
# VL: B1 VL with W32L, E53S
# B4: XPA23 light chain S93Y (Fab, V domains shown)
# VH: B1 VH
# VL: B1 VL with E53S, S93Y
# B5: XPA23 light chain S93W (Fab, V domains shown)
# VH: B1 VH
# VL: B1 VL with E53S, S93W
# B6: XPA23 light chain T52S (Fab, V domains shown)
# VH: B1 VH
# VL: B1 VL with T52S, E53S
# B7: XPA23 light chain T52H (Fab, V domains shown)
# VH: B1 VH
# VL: B1 VL with T52H, E53S
# B8: XPA23 light chain S53N (Fab, V domains shown)
# VH: B1 VH
# VL: B1 VL with E53N
# B9: XPA23 light chain S93R (Fab, V domains shown)
# VH: B1 VH
# VL: B1 VL with E53S, S93R
# B10: XPA23 light chain T52E (Fab, V domains shown)
# VH: B1 VH
# VL: B1 VL with T52E, E53S
# B11: XPA23 light chain S93E (Fab, V domains shown)
# VH: B1 VH
# VL: B1 VL with E53S, S93E
# B12: XPA23 light chain S53Q (Fab, V domains shown)
# VH: B1 VH
# VL: B1 VL with E53Q
# B13: XPA23 light chain T52A (Fab, V domains shown)
# VH: B1 VH
# VL: B1 VL with T52A, E53S
# B14: XPA23 light chain W32H (Fab, V domains shown)
# VH: B1 VH
# VL: B1 VL with W32H, E53S
# B15: XPA23 light chain S93Q (Fab, V domains shown)
# VH: B1 VH
# VL: B1 VL with E53S, S93Q
# B16: XPA23 light chain T52D (Fab, V domains shown)
# VH: B1 VH
# VL: B1 VL with T52D, E53S
# B17: XPA23 light chain W32N (Fab, V domains shown)
# VH: B1 VH
# VL: B1 VL with W32N, E53S
# B18: XPA23 light chain S93K (Fab, V domains shown)
# VH: B1 VH
# VL: B1 VL with E53S, S93K
# B19: XPA23 light chain S93H (Fab, V domains shown)
# VH: B1 VH
# VL: B1 VL with E53S, S93H
# B20: XPA23 light chain T52I (Fab, V domains shown)
# VH: B1 VH
# VL: B1 VL with T52I, E53S
# B21: XPA23 light chain S53Y (Fab, V domains shown)
# VH: B1 VH
# VL: B1 VL with E53Y
# B22: XPA23 light chain T52R (Fab, V domains shown)
# VH: B1 VH
# VL: B1 VL with T52R, E53S
# B23: XPA23 light chain S53R (Fab, V domains shown)
# VH: B1 VH
# VL: B1 VL with E53R
# B24: XPA23 light chain W32D (Fab, V domains shown)
# VH: B1 VH
# VL: B1 VL with W32D, E53S
# B25: XPA23 light chain T52N (Fab, V domains shown)
# VH: B1 VH
# VL: B1 VL with T52N, E53S
# B26: XPA23 light chain S53F (Fab, V domains shown)
# VH: B1 VH
# VL: B1 VL with E53F
# B27: XPA23 light chain S93N (Fab, V domains shown)
# VH: B1 VH
# VL: B1 VL with E53S, S93N
# B28: XPA23 light chain W32F (Fab, V domains shown)
# VH: B1 VH
# VL: B1 VL with W32F, E53S
# B29: XPA23 light chain T52F (Fab, V domains shown)
# VH: B1 VH
# VL: B1 VL with T52F, E53S
# B30: XPA23 light chain T52K (Fab, V domains shown)
# VH: B1 VH
# VL: B1 VL with T52K, E53S
# B31: XPA23 light chain S53W (Fab, V domains shown)
# VH: B1 VH
# VL: B1 VL with E53W
# B32: XPA23 light chain T52G (Fab, V domains shown)
# VH: B1 VH
# VL: B1 VL with T52G, E53S
# B33: XPA23 light chain W32E (Fab, V domains shown)
# VH: B1 VH
# VL: B1 VL with W32E, E53S
# B34: XPA23 light chain T52Y (Fab, V domains shown)
# VH: B1 VH
# VL: B1 VL with T52Y, E53S
# B35: XPA23 light chain S93F (Fab, V domains shown)
# VH: B1 VH
# VL: B1 VL with E53S, S93F
# B36: XPA23 light chain S53K (Fab, V domains shown)
# VH: B1 VH
# VL: B1 VL with E53K
# B37: XPA23 light chain W32I (Fab, V domains shown)
# VH: B1 VH
# VL: B1 VL with W32I, E53S
# B38: XPA23 light chain T52Q (Fab, V domains shown)
# VH: B1 VH
# VL: B1 VL with T52Q, E53S
# B39: XPA23 light chain S93D (Fab, V domains shown)
# VH: B1 VH
# VL: B1 VL with E53S, S93D
# B40: XPA23 light chain W32A (Fab, V domains shown)
# VH: B1 VH
# VL: B1 VL with W32A, E53S
# B41: XPA23 light chain T52W (Fab, V domains shown)
# VH: B1 VH
# VL: B1 VL with T52W, E53S
# B42: XPA23 light chain T52L (Fab, V domains shown)
# VH: B1 VH
# VL: B1 VL with T52L, E53S
# B43: XPA23 light chain T52P (Fab, V domains shown)
# VH: B1 VH
# VL: B1 VL with T52P, E53S
# B44: XPA23 light chain W32G (Fab, V domains shown)
# VH: B1 VH
# VL: B1 VL with W32G, E53S
# B45: XPA23 light chain W32K (Fab, V domains shown)
# VH: B1 VH
# VL: B1 VL with W32K, E53S
# Target: T1, IL-1β (UniProt P01584 117-269)
# T1 construct: Antigen immobilised on the Biacore chip
# Assay: Biacore, periplasmic extract
Binder,fold difference in affinity vs original [fold],binding result
B1,1.13,–
B2,0.82,–
B3,–,no binding
B4,1.45,–
B5,5.49,–
B6,0.78,–
B7,0.91,–
B8,1.23,–
B9,0.91,–
B10,0.61,–
B11,3.71,–
B12,1.09,–
B13,0.66,–
B14,–,no binding
B15,1.54,–
B16,0.72,–
B17,–,no binding
B18,0.86,–
B19,1.08,–
B20,0.8,–
B21,1.23,–
B22,3.37,–
B23,3.29,–

Binder,fold difference in affinity vs original [fold],binding result
B24,–,no binding
B25,0.83,–
B26,1.24,–
B27,3.76,–
B28,–,no binding
B29,1.05,–
B30,3.23,–
B31,1.11,–
B32,–,no binding
B33,–,no binding
B34,1.01,–
B35,1.32,–
B36,4.07,–
B37,–,no binding
B38,0.83,–
B39,4.59,–
B40,–,no binding
B41,0.87,–
B42,0.78,–
B43,1.08,–
B44,–,no binding
B45,–,no binding
